Data on 1 molecule can be found in paper PMC13043311, “2′-O-Methyl-guanosine RNA fragments antagonize TLR7 and TLR8 to limit autoimmunity”.

Numbering of substitutions follows the chain as printed.

What all share (conditions): protein: recombinant; chain copies: 2; single-stranded
The target in data set [1] is T1, TLR7 T406S (Macaca mulatta, UniProt B3Y653 27-839, T406S).
T1 sequence: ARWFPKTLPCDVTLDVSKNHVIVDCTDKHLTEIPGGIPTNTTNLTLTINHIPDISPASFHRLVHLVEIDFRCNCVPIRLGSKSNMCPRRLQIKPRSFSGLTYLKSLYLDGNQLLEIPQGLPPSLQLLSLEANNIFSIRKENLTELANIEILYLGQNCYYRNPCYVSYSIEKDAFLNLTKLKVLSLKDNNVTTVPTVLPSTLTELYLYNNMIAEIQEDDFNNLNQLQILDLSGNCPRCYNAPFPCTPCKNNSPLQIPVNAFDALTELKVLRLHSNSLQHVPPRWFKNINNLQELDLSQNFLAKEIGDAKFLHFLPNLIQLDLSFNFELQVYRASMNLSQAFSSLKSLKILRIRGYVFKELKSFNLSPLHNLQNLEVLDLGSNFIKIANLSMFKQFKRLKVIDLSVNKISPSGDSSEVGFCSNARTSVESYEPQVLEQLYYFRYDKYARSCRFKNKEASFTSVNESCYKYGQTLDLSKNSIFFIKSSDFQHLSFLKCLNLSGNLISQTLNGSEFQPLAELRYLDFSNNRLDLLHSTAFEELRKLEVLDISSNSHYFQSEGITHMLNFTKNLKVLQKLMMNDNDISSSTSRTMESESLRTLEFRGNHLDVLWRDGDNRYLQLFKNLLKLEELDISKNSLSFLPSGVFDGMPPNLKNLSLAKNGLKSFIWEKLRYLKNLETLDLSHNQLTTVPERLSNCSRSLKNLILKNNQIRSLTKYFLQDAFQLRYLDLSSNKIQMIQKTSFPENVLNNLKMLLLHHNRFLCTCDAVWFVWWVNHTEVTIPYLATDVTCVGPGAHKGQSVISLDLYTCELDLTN
Description: SPR; mean computed from runs 0.5±0.09, 0.6±0.1, 0.6±0.1; SPR with recombinant TLR7/TLR8; buffer, pH and temperature not in the material. A general note: SPR reads the build-up and loss of mass on a sensor chip optically.

The target in data set [2] is T2, TLR7 F507S (Macaca mulatta, UniProt B3Y653 27-839, F507S).
T2 sequence: T1 sequence with S380T, F481S
Description: SPR; mean computed from runs 36±1, 46±2, 42±6; SPR with recombinant TLR7/TLR8; buffer, pH and temperature not in the material.

Data set [3] has as its target T3, TLR7 S530A (Macaca mulatta, UniProt B3Y653 27-839, S530A).
T3 sequence: T1 sequence with S380T, S504A
Description: SPR; mean computed from runs 0.1±0.02, 0.2±0.04, 0.2±0.06; SPR with recombinant TLR7/TLR8; buffer, pH and temperature not in the material.

On to GUC (XNA, 2'-OMe G1, RNA U2 C3; phosphorothioate linkages) [mGrUrC PS], for which the figures for the Kd in data set [1], in data set [2] and in data set [3] were 570 nM, 41300 nM and 170 nM, respectively.

The term Kd denotes a measure of binding affinity in units of concentration.
